Experiments:
[1] = molecular target: pre-existing anti-scFv903 antibodies in human serum H40 (human); test: competition ADA bridging ELISA
[2] = molecular target: pre-existing anti-scFv903 antibodies in human serum H81 (human); test: competition ADA bridging ELISA
[3] = molecular target: pre-existing anti-scFv903 antibodies in human serum H116 (human); test: competition ADA bridging ELISA
[4] = molecular target: pre-existing anti-scFv903 antibodies in human serum H60 (human); test: competition ADA bridging ELISA
[5] = molecular target: pre-existing anti-scFv903 antibodies in human serum H80 (human); test: competition ADA bridging ELISA
[6] = molecular target: pre-existing anti-scFv903 antibodies in human serum H54 (human); test: competition ADA bridging ELISA
[7] = molecular target: pre-existing anti-scFv903 antibodies in human serum H49 (human); test: competition ADA bridging ELISA
[8] = molecular target: pre-existing anti-scFv903 antibodies in human serum H50 (human); test: competition ADA bridging ELISA
[9] = molecular target: pre-existing anti-scFv903 antibodies in human serum H76 (human); test: competition ADA bridging ELISA
[10] = molecular target: pre-existing anti-scFv903 antibodies in human serum H63 (human); test: competition ADA bridging ELISA
[11] = molecular target: pre-existing anti-scFv903 antibodies in human serum H15 (human); test: competition ADA bridging ELISA
[12] = molecular target: pre-existing anti-scFv903 antibodies in human serum H135 (human); test: competition ADA bridging ELISA
[13] = molecular target: pre-existing anti-scFv903 antibodies in human serum H8 (human); test: competition ADA bridging ELISA
[14] = molecular target: pre-existing anti-scFv903 antibodies in human serum H19 (human); test: competition ADA bridging ELISA
[15] = molecular target: pre-existing anti-scFv903 antibodies in human serum H96 (human); test: competition ADA bridging ELISA
[16] = molecular target: pre-existing anti-scFv903 antibodies in human serum H86 (human); test: competition ADA bridging ELISA
[17] = molecular target: pre-existing anti-scFv903 antibodies in human serum H64 (human); test: competition ADA bridging ELISA
[18] = molecular target: pre-existing anti-scFv903 antibodies in human serum H105 (human); test: competition ADA bridging ELISA
[19] = molecular target: pre-existing anti-scFv903 antibodies in human serum H115 (human); test: competition ADA bridging ELISA
[20] = molecular target: pre-existing anti-scFv903 antibodies in human serum H53 (human); test: competition ADA bridging ELISA
[21] = molecular target: pre-existing anti-scFv903 antibodies in human serum H59 (human); test: competition ADA bridging ELISA
[22] = molecular target: pre-existing anti-scFv903 antibodies in human serum H125 (human); test: competition ADA bridging ELISA
[23] = molecular target: pre-existing anti-scFv903 antibodies in human serum H20 (human); test: competition ADA bridging ELISA
[24] = molecular target: pre-existing anti-scFv903 antibodies in human serum H56 (human); test: competition ADA bridging ELISA
[25] = molecular target: pre-existing anti-scFv903 antibodies in human serum H26 (human); test: competition ADA bridging ELISA
[26] = molecular target: pre-existing anti-scFv903 antibodies in human serum H29 (human); test: competition ADA bridging ELISA
[27] = molecular target: rabbit polyclonal Anti-scFv 903 IgG termed AB903-3 (rabbit); test: confirmatory ADA bridging ELISA, pre-incubation with 10, 100 or 1 mcg/ml scFv 903

| Binder | signal change in competition ELISA (% reduction in OD) [1] [%] | signal change in competition ELISA (% reduction in OD) [2] [%] | signal change in competition ELISA (% reduction in OD) [3] [%] | signal change in competition ELISA (% reduction in OD) [4] [%] | signal change in competition ELISA (% reduction in OD) [5] [%] | signal change in competition ELISA (% reduction in OD) [6] [%] | signal change in competition ELISA (% reduction in OD) [7] [%] | signal change in competition ELISA (% reduction in OD) [8] [%] | signal change in competition ELISA (% reduction in OD) [9] [%] | signal change in competition ELISA (% reduction in OD) [10] [%] | signal change in competition ELISA (% reduction in OD) [12] [%] | signal change in competition ELISA (% reduction in OD) [13] [%] | signal change in competition ELISA (% reduction in OD) [14] [%] | signal change in competition ELISA (% reduction in OD) [15] [%] | signal change in competition ELISA (% reduction in OD) [17] [%] | signal change in competition ELISA (% reduction in OD) [18] [%] | signal change in competition ELISA (% reduction in OD) [19] [%] | signal change in competition ELISA (% reduction in OD) [20] [%] | signal change in competition ELISA (% reduction in OD) [21] [%] | signal change in competition ELISA (% reduction in OD) [22] [%] | further results |
| --- | --- | --- | --- | --- | --- | --- | --- | --- | --- | --- | --- | --- | --- | --- | --- | --- | --- | --- | --- | --- | --- |
| scFv 791 (scFv) scFv: MEIVMTQSPSTLSASLGDRVIITCQSSQSVYGNIWMAWYQQKSGKAPKLLIYQASKLASGVPSRFSGSGSGAEFSLTISSLQPDDFATYYCQGNFNTGDRYAFGQGTKLTVLGGGGGSGGGGSGGGGSGGGGSEVQLVESGGGLVQPGGSLRLSCTASGFTISRSYWICWVRQAPGKGLEWVACIYGDNDITPLYANWAKGRFPVSTDTSKNTVYLQMNSLRAEDTAVYYCARLGYADYAYDLWGQGTLVTVSS | -95 | -94 | -97 | -95 | -85 | -92 | -81 | -89 | -96 | -20 | -95 | -91 | -84 | -79 | -96 | -97 | -95 | -35 | -96 | -97 | signal change in competition ELISA (% reduction in OD) [11]: -90%; signal change in competition ELISA (% reduction in OD) [16]: -87%; signal change in competition ELISA (% reduction in OD) [23]: -96%; signal change in competition ELISA (% reduction in OD) [24]: -15%; signal change in competition ELISA (% reduction in OD) [25]: -97%; signal change in competition ELISA (% reduction in OD) [26]: -79% |
| scFv 903 (scFv) scFv: EIVMTQSPSTLSASVGDRVIITCQASEIIHSWLAWYQQKPGKAPKLLIYLASTLASGVPSRFSGSGSGAEFTLTISSLQPDDFATYYCQNVYLASTNGANFGQGTKLTVLGGGGGSGGGGSGGGGSGGGGSEVQLVESGGGLVQPGGSLRLSCTASGFSLTDYYYMTWVRQAPGKGLEWVGFIDPDDDPYYATWAKGRFTISRDTSKNTVYLQMNSLRAEDTAVYYCAGGDHNSGWGLDIWGQGTLVTVSS | -95 | -95 | -98 | -96 | -87 | -93 | -83 | -89 | -97 | -97 | -93 | -87 | -90 | -80 | -97 | -97 | -95 | -32 | -97 | -98 | signal change in competition ELISA (% reduction in OD) [11]: -91%; signal change in competition ELISA (% reduction in OD) [16]: -86%; signal change in competition ELISA (% reduction in OD) [23]: -92%; signal change in competition ELISA (% reduction in OD) [24]: -24%; signal change in competition ELISA (% reduction in OD) [25]: -92%; signal change in competition ELISA (% reduction in OD) [26]: -79%; OD change upon pre-incubation [27]: 60 to 95% |

The next lines start with results.

| signal change in competition ELISA (% reduction in OD) [1] [%] | signal change in competition ELISA (% reduction in OD) [2] [%] | signal change in competition ELISA (% reduction in OD) [3] [%] | signal change in competition ELISA (% reduction in OD) [4] [%] | signal change in competition ELISA (% reduction in OD) [5] [%] | signal change in competition ELISA (% reduction in OD) [6] [%] | signal change in competition ELISA (% reduction in OD) [7] [%] | signal change in competition ELISA (% reduction in OD) [8] [%] | signal change in competition ELISA (% reduction in OD) [9] [%] | signal change in competition ELISA (% reduction in OD) [10] [%] | signal change in competition ELISA (% reduction in OD) [12] [%] | signal change in competition ELISA (% reduction in OD) [13] [%] | signal change in competition ELISA (% reduction in OD) [14] [%] | signal change in competition ELISA (% reduction in OD) [15] [%] | signal change in competition ELISA (% reduction in OD) [17] [%] | signal change in competition ELISA (% reduction in OD) [18] [%] | signal change in competition ELISA (% reduction in OD) [19] [%] | signal change in competition ELISA (% reduction in OD) [20] [%] | signal change in competition ELISA (% reduction in OD) [21] [%] | signal change in competition ELISA (% reduction in OD) [22] [%] | Binder | further results |
| --- | --- | --- | --- | --- | --- | --- | --- | --- | --- | --- | --- | --- | --- | --- | --- | --- | --- | --- | --- | --- | --- |
| -2 | -9 | -33 | -1 | -55 | -69 | -9 | -73 | -36 | -36 | -75 | -89 | -64 | -78 | -14 | 7 | -31 | -31 | -67 | 3 | scFv 961 (scFv) scFv: EIVMTQSPSTLSASVGDRVIITCQASEIIHSWLAWYQQKPGKAPKLLIYLASTLASGVPSRFSGSGSGAEFTLTISSLQPDDFATYYCQNVYLASTNGANFGQGTKLTVLGGGGGSGGGGSGGGGSGGGGSEVQLVESGGGSVQPGGSLRLSCTASGFSLTDYYYMTWVRQAPGKGLEWVGFIDPDDDPYYATWAKGRFTISRDTSKNTVYLQMNSLRAEDTATYYCAGGDHNSGWGLDIWGQGTTVTVSS | signal change in competition ELISA (% reduction in OD) [16]: -68%; signal change in competition ELISA (% reduction in OD) [23]: -23%; signal change in competition ELISA (% reduction in OD) [24]: -24%; signal change in competition ELISA (% reduction in OD) [25]: 0%; signal change in competition ELISA (% reduction in OD) [26]: -22% |
| 4 | -18 | -43 | -11 | -51 | -61 | -26 | -31 | -18 | -80 | -23 | -23 | -73 | -29 | -55 | 2 | -60 | -18 | -94 | -55 | scFv105 (scFv) scFv: DIVMTQSPSSLSASVGDRVTLTCTASQSVSNDVVWYQQRPGKAPKLLIYSAFNRYTGVPSRFSGRGYGTDFTLTISSLQPEDVAVYYCQQDYNSPRTFGQGTKLEVKRGGGGSGGGGSGGGGSSGGGSQVQLVQSGAEVKKPGASVKVSCTASGYTFTHYGMNWVRQAPGKGLEWMGWINTYTGEPTYADKFKDRFTFSLETSASTVYMELTSLTSDDTAVYYCARERGDAMDYWGQGTLVTVSS | signal change in competition ELISA (% reduction in OD) [11]: -69%; signal change in competition ELISA (% reduction in OD) [23]: -19%; signal change in competition ELISA (% reduction in OD) [24]: -5%; signal change in competition ELISA (% reduction in OD) [25]: -80%; signal change in competition ELISA (% reduction in OD) [26]: -51% |

Source: US20210214461A1
